Consider 5 molecules from article PMC5469796, “Interaction of PKR with single-stranded RNA”.

Several values for one entry are separate records, joined by “and”; a condition that tells them apart may be missing. Identical values can stand only once.

The term Kd denotes the free concentration of one partner at which half of the binding sites on the other are occupied at equilibrium, for simple one-to-one binding.

Data set [1] concerns the target 229-kinase (UniProt P19525). Briefly: sedimentation velocity AUC. The note with it: AU75: 75 mM HEPES pH 7.5, 75 mM NaCl, 0.1 mM EDTA, 0.1 mM TCEP, 20 °C, 50,000 rpm, 260 nm; errors are confidence intervals (95% joint stated for Table 2) ….
The target of data set [2] is 242-kinase (UniProt P19525). The data set is described as follows: sedimentation velocity AUC. The note with it: AU75: 75 mM HEPES pH 7.5, 75 mM NaCl, 0.1 mM EDTA, 0.1 mM TCEP, 20 °C, 50,000 rpm, 260 nm; errors are confidence intervals (95% joint stated for Table 2) ….
The target of data set [3] is 242-kinase (UniProt P19525 242-551). Briefly: sedimentation velocity AUC; 1:1 model; second protein not detected; AU75: 75 mM HEPES pH 7.5, 75 mM NaCl, 0.1 mM EDTA, 0.1 mM TCEP, 20 °C, 50,000 rpm, 260 nm; errors are confidence intervals (95% joint stated for Table 2); crosslinking in AU75 + 10 mM EDTA, 0.5 µM RNA, 1 µM protein, on ice before UV. The note with it: protein: recombinant; tags: TEV-cleaved; single strand.

In data set [4] the target is 229-kinase (UniProt P19525 229-551). The data set is described as follows: sedimentation velocity AUC; Kd1, sequential 2:1; AU75: 75 mM HEPES pH 7.5, 75 mM NaCl, 0.1 mM EDTA, 0.1 mM TCEP, 20 °C, 50,000 rpm, 260 nm; errors are confidence intervals (95% joint stated for Table 2); crosslinking in AU75 + 10 mM EDTA, 0.5 µM RNA, 1 µM protein, on ice before UV. The conditions noted are these: protein: recombinant; tags: TEV-cleaved, extra N-terminal Gly; chain copies: 2; single strand.

In data set [5] the target is 185-kinase (UniProt P19525 185-551). Described as above. The note with it: protein: recombinant; tags: TEV-cleaved, extra N-terminal Gly; chain copies: 2; single strand.
The target of data set [6] is PKR full length (UniProt P19525 1-551). The data set is described as above. The conditions noted are these: protein: recombinant, chain copies: 2.
Data set [7] has as its target T1, PKR dsRBD (UniProt P19525 1-184). Described as above. The conditions noted are these: protein: recombinant; chain copies: 2; single strand.
In data set [8] the target is T1, PKR dsRBD. The data set is described as follows: sedimentation velocity AUC; Kd1; footnote b not in material; AU75: 75 mM HEPES pH 7.5, 75 mM NaCl, 0.1 mM EDTA, 0.1 mM TCEP, 20 °C, 50,000 rpm, 260 nm; errors are confidence intervals (95% joint stated for Table 2); crosslinking in AU75 + 10 mM EDTA, 0.5 µM RNA, 1 µM protein, on ice before UV. The conditions noted are these: protein: recombinant; chain copies: 2; weak predicted secondary structure.

Where [9] appears, read: weak predicted secondary structure.

Sequence of PKR full length (P19525 whole entry): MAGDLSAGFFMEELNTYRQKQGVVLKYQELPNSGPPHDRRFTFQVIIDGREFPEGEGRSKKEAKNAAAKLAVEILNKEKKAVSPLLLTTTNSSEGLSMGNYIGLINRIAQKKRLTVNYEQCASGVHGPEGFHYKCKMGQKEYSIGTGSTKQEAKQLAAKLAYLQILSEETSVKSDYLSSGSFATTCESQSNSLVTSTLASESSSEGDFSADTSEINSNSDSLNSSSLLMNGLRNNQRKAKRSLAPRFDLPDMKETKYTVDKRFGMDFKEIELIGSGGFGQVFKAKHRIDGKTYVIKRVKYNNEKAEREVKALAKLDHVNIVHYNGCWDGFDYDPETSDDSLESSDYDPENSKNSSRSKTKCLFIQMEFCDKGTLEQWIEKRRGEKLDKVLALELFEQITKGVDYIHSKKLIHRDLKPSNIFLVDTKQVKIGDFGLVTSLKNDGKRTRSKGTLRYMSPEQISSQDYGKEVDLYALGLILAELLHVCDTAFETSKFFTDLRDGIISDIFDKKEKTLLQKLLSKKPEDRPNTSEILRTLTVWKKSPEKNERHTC
T1 sequence (P19525 1-184): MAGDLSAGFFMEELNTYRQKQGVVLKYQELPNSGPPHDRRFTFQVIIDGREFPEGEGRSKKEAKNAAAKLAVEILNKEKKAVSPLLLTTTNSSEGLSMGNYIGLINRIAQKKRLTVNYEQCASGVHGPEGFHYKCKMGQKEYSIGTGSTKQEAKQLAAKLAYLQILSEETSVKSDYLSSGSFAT
Sequence of 229-kinase (UniProt P19525) (P19525 229-551): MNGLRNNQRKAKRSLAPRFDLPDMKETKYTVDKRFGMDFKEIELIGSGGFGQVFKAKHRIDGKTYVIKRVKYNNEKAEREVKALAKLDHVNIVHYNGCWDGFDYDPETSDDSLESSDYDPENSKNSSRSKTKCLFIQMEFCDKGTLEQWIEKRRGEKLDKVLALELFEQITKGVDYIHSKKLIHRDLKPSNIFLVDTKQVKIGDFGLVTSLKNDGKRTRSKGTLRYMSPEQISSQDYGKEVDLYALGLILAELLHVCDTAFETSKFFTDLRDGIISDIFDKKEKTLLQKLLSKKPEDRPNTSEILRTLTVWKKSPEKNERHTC
Sequence of 229-kinase (UniProt P19525 229-551) (P19525 229-551): as above
Sequence of 185-kinase (P19525 185-551): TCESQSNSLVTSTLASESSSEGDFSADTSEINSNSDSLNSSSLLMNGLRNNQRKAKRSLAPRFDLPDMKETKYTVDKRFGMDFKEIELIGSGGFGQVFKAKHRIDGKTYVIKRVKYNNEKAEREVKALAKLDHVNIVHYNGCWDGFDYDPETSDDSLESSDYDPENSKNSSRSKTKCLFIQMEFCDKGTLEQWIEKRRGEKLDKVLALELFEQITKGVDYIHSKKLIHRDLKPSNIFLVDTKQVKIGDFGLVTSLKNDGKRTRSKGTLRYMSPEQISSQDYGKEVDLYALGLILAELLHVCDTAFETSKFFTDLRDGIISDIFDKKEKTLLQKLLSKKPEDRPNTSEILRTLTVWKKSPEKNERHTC
Sequence of 242-kinase (UniProt P19525 242-551) (P19525 242-551): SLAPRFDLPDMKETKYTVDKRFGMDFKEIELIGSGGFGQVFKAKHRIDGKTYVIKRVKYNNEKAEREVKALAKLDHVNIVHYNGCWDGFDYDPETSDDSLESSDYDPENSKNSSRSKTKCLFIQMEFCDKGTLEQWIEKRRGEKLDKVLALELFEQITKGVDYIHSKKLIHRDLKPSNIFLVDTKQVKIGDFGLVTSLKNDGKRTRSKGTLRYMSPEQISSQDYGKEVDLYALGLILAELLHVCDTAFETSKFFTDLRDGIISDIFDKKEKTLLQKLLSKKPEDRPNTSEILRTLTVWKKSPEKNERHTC
Sequence of 242-kinase (UniProt P19525) (P19525 242-551): as above

With ds30, the Kd in data set [1] is 3.8 µM and 3.27 µM; in data set [2] it was 19.9 µM.

B1: U30 (ssRNA)
RNA: UUUUUUUUUUUUUUUUUUUUUUUUUUUUUU
Consider B1, for which the Kd worked out at 90 µM in data set [3]; 1910 nM in data set [4]; 31.9 µM in data set [5]; 3510 nM in data set [6] (single strand); 8.42 µM in data set [7].

B2: Het30 (ssRNA)
RNA: GGAGAACUUAAUGCCGGAGACCAAAGACUU
modifications: 5'-OH
In the case of B2, the Kd is 1070 nM in data set [6] (setting [9]) and 8.21 µM in data set [8].

B3: dT30 (ssDNA)
DNA: TTTTTTTTTTTTTTTTTTTTTTTTTTTTTT
Regarding B3, the equilibrium dissociation constant (Kd) in data set [4] was 2590 nM.

B4: ppp-Het30 (ssRNA)
RNA: GGAGAACUUAAUGCCGGAGACCAAAGACUU
modifications: 5'-triphosphate
In the case of B4, the Kd in data set [6] (setting [9]) is 825 nM; in data set [8] it was 5.36 µM.
